The results in this text go back to US20140072558A1.

In this assay the target is ACVR2B as used in surface plasmon resonance (UniProt Q13705). Briefly: SPR; with 0.625 nM B09.
Chain of ACVR2B as used in surface plasmon resonance (Q13705 19-134): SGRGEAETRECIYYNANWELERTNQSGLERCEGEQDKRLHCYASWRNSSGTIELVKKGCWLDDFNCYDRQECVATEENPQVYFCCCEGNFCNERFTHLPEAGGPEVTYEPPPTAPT

For “water-soluble DLK1 treated together with the B09 antibody (from UniProt P80370 25-302)”, the Kd is 4.07E-10 ?.
